Laboratory results published in patent US20250360083A1.

Molecular target: CXCR4 receptor on J-Lat8.4, Jurkat E6 and U1 cells (human) (UniProt P61073)
Test: cell-based or functional assay

With “cyclic peptide cyclo (D-Tyr-Orn-Arg-Nal-Gly-) (CycPep), conjugated to DSPE-PEG and displayed on CXCR4 targeted lipid nanoparticles (T-LNP)” as the substance, how does the viral DNA excision (excised band intensity on gel), J-Lat8.4 and Jurkat E6 against U1 read?
The viral DNA excision (excised band intensity on gel), J-Lat8.4 and Jurkat E6 against U1 was 4 fold.

What about the viral excision of the same substance?
The viral excision was < 60%.
